In patent US20090111753A1, “Nogo-A Polypeptide Fragments, Variant Nogo Receptor-1 Polypeptides, and Uses Thereof” (Yale University, priority 2004, published 2009):
Each block holds one molecule with its values, some of them ahead of it.

B2: mouse NgR3 expressed on COS-7 cells (receptor, UniProt Q8K0S5 25-424, looked up)
chain: CPRDCVCYPAPMTVSCQAHNFAAIPEGIPEDSERIFLQNNRITFLQQGHFSPAMVTLWIYSNNITFIAPNTFEGFVHLEELDLGDNRQLRTLAPETFQGLVKLHALYLYKCGLSALPAGIFGGLHSLQYLYLQDNHIEYLQDDIFVDLVNLSHLFLHGNKLWSLGQGIFRGLVNLDRLLLHENQLQWVHHKAFHDLHRLTTLFLFNNSLTELQGDCLAPLVALEFLRLNGNAWDCGCRARSLWEWLRRFRGSSSAVPCATPELRQGQDLKLLRVEDFRNCTGPVSPHQIKSHTLTTSDRAARKEHHPSHGASRDKGHPHGHPPGSRSGYKKAGKNCTSHRNRNQISKVSSGKELTELQDYAPDYQHKFSFDIMPTARPKRKGKCARRTPIRAPSGVQQAS
notes: whole, on cells; tagged (anti-Myc or anti-His detection); tag not specified

Assays:
[1] = target: T1, human NgR2 (Homo sapiens, UniProt Q86UN3); settings: expressed on the surface of COS-7 cells; Barton et al. 2003; cited from earlier work
T1 construct: expressed in transfected cells; host or cells: COS-7
T1 sequence (Q86UN3 47-390): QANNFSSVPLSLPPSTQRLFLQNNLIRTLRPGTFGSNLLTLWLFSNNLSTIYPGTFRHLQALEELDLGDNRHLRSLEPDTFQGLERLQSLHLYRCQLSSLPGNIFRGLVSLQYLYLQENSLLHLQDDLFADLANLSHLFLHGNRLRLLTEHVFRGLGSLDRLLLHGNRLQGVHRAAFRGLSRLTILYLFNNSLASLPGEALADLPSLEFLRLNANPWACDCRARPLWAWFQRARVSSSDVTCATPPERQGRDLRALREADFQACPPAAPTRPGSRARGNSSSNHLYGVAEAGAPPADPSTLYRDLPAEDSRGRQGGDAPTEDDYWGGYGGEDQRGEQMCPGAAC

[2] = target: T2, mouse NgR3 (Mus musculus, UniProt Q8K0S5); settings: expressed on the surface of COS-7 cells; Barton et al. 2003; cited from earlier work
T2 construct: expressed in transfected cells; host or cells: COS-7
T2 sequence (Q8K0S5 25-424): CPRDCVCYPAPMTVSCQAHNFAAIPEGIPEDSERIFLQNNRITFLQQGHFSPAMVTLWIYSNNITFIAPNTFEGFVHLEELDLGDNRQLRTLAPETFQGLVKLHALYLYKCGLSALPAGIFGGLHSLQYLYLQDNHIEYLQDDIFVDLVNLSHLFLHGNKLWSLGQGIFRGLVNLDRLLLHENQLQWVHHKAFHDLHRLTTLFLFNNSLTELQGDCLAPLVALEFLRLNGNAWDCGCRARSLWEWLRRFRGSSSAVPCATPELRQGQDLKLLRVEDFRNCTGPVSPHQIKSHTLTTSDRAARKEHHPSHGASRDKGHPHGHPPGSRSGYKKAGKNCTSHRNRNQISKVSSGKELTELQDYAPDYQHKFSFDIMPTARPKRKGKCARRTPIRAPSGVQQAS

[3] = target: T3, AP-fused Amino-Nogo fragment A (a.a. 181-864) (human, UniProt Q9NQC3 181-864); assay: AP fusion on COS-7 cells expressing mouse NgR3
T3 construct: AP put first by the name; also called AmNg A; AP-AmNgA; not shown: alkaline phosphatase (AP), vector pcAP6
T3 sequence: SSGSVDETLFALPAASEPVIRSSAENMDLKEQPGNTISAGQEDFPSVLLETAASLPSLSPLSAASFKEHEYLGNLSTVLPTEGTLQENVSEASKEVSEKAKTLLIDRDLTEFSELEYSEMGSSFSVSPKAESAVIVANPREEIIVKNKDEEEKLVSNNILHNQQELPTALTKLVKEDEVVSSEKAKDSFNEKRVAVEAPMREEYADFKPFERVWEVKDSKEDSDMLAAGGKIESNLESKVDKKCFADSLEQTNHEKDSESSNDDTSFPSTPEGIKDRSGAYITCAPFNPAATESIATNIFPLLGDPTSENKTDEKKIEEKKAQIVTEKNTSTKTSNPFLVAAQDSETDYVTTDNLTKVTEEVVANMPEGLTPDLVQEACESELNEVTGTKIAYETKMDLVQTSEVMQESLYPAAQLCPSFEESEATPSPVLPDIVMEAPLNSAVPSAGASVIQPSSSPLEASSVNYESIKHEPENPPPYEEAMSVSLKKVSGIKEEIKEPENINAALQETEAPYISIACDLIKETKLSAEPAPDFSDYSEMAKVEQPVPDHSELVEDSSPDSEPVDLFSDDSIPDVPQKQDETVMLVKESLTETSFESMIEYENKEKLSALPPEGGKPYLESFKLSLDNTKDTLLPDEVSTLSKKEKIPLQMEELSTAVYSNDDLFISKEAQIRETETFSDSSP
Description: (§1) FIG. 3B. […] Conditioned media from transfected HEK293T cells containing 20 nM of indicated AP fusion protein were applied to COS-7 cells expressing mouse NgR1, human NgR2 or mouse NgR3 and bound AP was stained. Surface expression of NgR5 was detected using anti-Myc or anti-His antibodies. AP-AmNgA: AP fusion protein of Amino-Nogo fragment A. AP-AmNgB: AP fusion protein of Amino-Nogo fragment B.

[4] = target: B2; assay: AP fusion on COS-7 cells expressing mouse NgR3
Description: as §1

B1: AP-Nogo-66: AP fusion protein of the Nogo-66 domain (protein)
chain: RIYKGVIQAIQKSDEGHPFRAYLESEVAISEELVQKYSNSALGHVNCTIKELRRLFLVDDLVDSLK
modifications: left off: large carriers
notes: AP fusion protein of the Nogo-66 domain
binding to NgR2 [1]: do not bind
binding to NgR3 [2]: do not bind

Molecule: B2
binding result [3]: no binding (tested: 20 nM)

binding result [4]: no binding (tested: 20 nM)
B3: AP-fused Amino-Nogo fragment B (a.a. 622-1018) (ligand)
chain: SAVPSAGASVIQPSSSPLEASSVNYESIKHEPENPPPYEEAMSVSLKKVSGIKEEIKEPENINAALQETEAPYISIACDLIKETKLSAEPAPDFSDYSEMAKVEQPVPDHSELVEDSSPDSEPVDLFSDDSIPDVPQKQDETVMLVKESLTETSFESMIEYENKEKLSALPPEGGKPYLESFKLSLDNTKDTLLPDEVSTLSKKEKIPLQMEELSTAVYSNDDLFISKEAQIRETETFSDSSPIEIIDEFPTLISSKTDSFSKLAREYTDLEVSHKSEIANAPDGAGSLPCTELPHDLSLKNIQPKVEEKISFSDDFSKNGSATSKVLLLPPDVSALATQAEIESIVKPKVLVKEAEKKLPSDTEKEDRSPSAIFSAELSKTSVVDLLYWRDIKKTG
notes: also called AmNg B; AP-AmNgB; not shown: alkaline phosphatase (AP), vector pcAP6
